Source: US20230312725A1 (JIANGSU HENGRUI PHARMACEUTICALS, published 2023)
Values belong to the binder of their own block, whether it stands above or below them.

Target: human Claudin18.2 (human)
Assay: cell-based or functional assay

ADCC effect, IC50 (ng/ml), NUGC4 cells with high Claudin18.2 expression: 26.2 ng/mL
ADCC effect, IC50 (ng/ml), NUGC4 cells with low Claudin18.2 expression: 22.4 ng/mL
ADCC effect, IC50 (ng/ml), NUGC4 cells with moderate Claudin18.2 expression: 15.3 ng/mL
B1: h1901-11 (antibody, human IgG1, kappa, V domains shown)
VH: EVQLVESGGGLVQPGGSLRLSCAASGFTFSDYGIHWVRQAPGKGLEWIAYISRGSSTIYYADTVKGRFTISRDNAKNSLYLQMTSLRAEDTAVYYCARGGYDTRNAMDYWGQGTTVTVSS
VL: DIVMTQSPDSLAVSLGERATISCKSSQSLLNSGNQKNYLAWYQQKPGQPPKLLIYGASTRASGVPDRFSGSGSGTDFTLTISSLQAEDVAIYHCQNDLYYPLTFGQGTKLEIKR

ADCC effect, IC50 (ng/ml), NUGC4 cells with high Claudin18.2 expression: 133 ng/mL
ADCC effect, IC50 (ng/ml), NUGC4 cells with low Claudin18.2 expression: 183 ng/mL
ADCC effect, IC50 (ng/ml), NUGC4 cells with moderate Claudin18.2 expression: 210 ng/mL
B2: IMAB-362 (antibody, human IgG1, kappa, V domains shown)
VH: QVQLQQPGAELVRPGASVKLSCKASGYTFTSYWINWVKQRPGQGLEWIGNIYPSDSYTNYNQKFKDKATLTVDKSSSTAYMQLSSPTSEDSAVYYCTRSWRGNSFDYWGQGTTLTVSS
VL: DIVMTQSPSSLTVTAGEKVTMSCKSSQSLLNSGNQKNYLTWYQQKPGQPPKLLIYWASTRESGVPDRFTGSGSGTDFTLTISSVQAEDLAVYYCQNDYSYPFTFGSGTKLEIKR
